First the molecules themselves.
B1: NET1 (parent)
chain: IKRTIRVLDVNNQSFREQEEPSNK
B2: ADD1 (parent)
chain: LRHSFQKQQREKTRWLNSGRGDEA
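Note: lentivirally expressed fusions sorted by FACS into six bins by GFP to DsRed ratio, PSI derived from sequencing read proportions per bin multiplied by bin number.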

In one data set the parent is B1. The experiment in a line: protein stability index of a GFP-peptide fusion (GPS, HEK-293T) (PSI 1-6); higher = more stable. The following applies: c terminus: a fixed tail appended.
Turning to IKRTIRVLDVNNQSFRGQEEPSNK [E17G], the protein stability index came out at 3.29. Same read-out and setting: then IKRTIRVLDVNNQSFRDQEEPSNK [E17D], with 3.25; and IKRTIRVLDVNNQSFWEQEEPSNK [R16W], with 2.07; and IKRTIRVLPVNNQSFREQEEPSNK [D9P], with 4.36. Same read-out and setting: then IHRTIRVLDVNNQSFREQEEPSNK [K2H], with 4.01; and ITRTIRVLDVNNQSFREQEEPSNK [K2T], with 4.8. Same read-out and setting: then IKRTIRVLDVNNQAFREQEEPSNK [S14A], with 3.02; and IKRTIRVLDVNNQVFREQEEPSNK [S14V], with 3.47; and IKRTIRVLDVNNQSFREQEEPSTK [N23T], with 3.73. Consider IKRTIRVLDQNNQSFREQEEPSNK [V10Q], for which the protein stability index amounted to 4.03. Take IKRTIRVLDVVNQSFREQEEPSNK [N11V]: the protein stability index is 3.56. Same read-out and setting: in the case of IKRTIRVLDVNNQSMREQEEPSNK [F15M] it was 3.98; in that of IKRTIRVLDVNNQSFREQEPPSNK [E20P], 3.33; in that of IKRTIRVLDVNNQSFREQEIPSNK [E20I], 3.37.

A further data set covers variants of B2. The data set is described as above. To be noted: c terminus: a fixed tail appended.
On to LRASFQKQQREKTRWLNSGRGDEA [H3A], for which the protein stability index was 3.67.

As for LRISFQKQQREKTRWLNSGRGDEA [H3I], the protein stability index turned out to be 3.16.

Take LRESFQKQQREKTRWLNSGRGDEA [H3E]: the protein stability index turned out to be 3.98. The same measure, in the same setting: in the case of LRRSFQKQQREKTRWLNSGRGDEA [H3R] it was 3.61; in that of LRSSFQKQQREKTRWLNSGRGDEA [H3S], 4.03; in that of LRNSFQKQQREKTRWLNSGRGDEA [H3N], 3.65.

As to LRVSFQKQQREKTRWLNSGRGDEA [H3V], the protein stability index came to 3.32. Regarding LRGSFQKQQREKTRWLNSGRGDEA [H3G], the protein stability index worked out at 3.93.

For the variant LRCSFQKQQREKTRWLNSGRGDEA [H3C], the protein stability index came out at 2.31.

LRHSYQKQQREKTRWLNSGRGDEA [F5Y]: the protein stability index is 3.71. Turning to LRHSMQKQQREKTRWLNSGRGDEA [F5M], the protein stability index was 3.8. LRHSSQKQQREKTRWLNSGRGDEA [F5S]: the protein stability index was 4.17. On the same count and under the same terms, in the case of LRHSLQKQQREKTRWLNSGRGDEA [F5L] it was 3.83. Consider LRHSWQKQQREKTRWLNSGRGDEA [F5W], for which the protein stability index turned out to be 3.44. Same read-out and setting: in the case of LRHSFQKQQREKTRWWNSGRGDEA [L16W] it was 2.35; in that of LRHSFQKQQREKTRWHNSGRGDEA [L16H], 3.42; in that of LRHSFQKQQREKTRWQNSGRGDEA [L16Q], 4.01.

With LRHSFQKQQREKTRWINSGRGDEA [L16I], the protein stability index came out at 3.67. On the same count and under the same terms, then LRHSFQKQQREKTRWPNSGRGDEA [L16P], with 4.57; and LRHSFQKQQREKTRWGNSGRGDEA [L16G], with 4; and LRHSFQKQQREKTRWRNSGRGDEA [L16R], with 4.03. Regarding LRHSFQKQQREKTRWLPSGRGDEA [N17P], the protein stability index is 4.03.

For the variant LRHSFQKQQREKTRWLLSGRGDEA [N17L], the protein stability index was 3.05. As to LRHSFQKQQREKTRWLYSGRGDEA [N17Y], the protein stability index stood at 2.91. Regarding LRHSFQKQQREKTRWLCSGRGDEA [N17C], the protein stability index is 3.15. On to LRHSFQKQQREKTRWLTSGRGDEA [N17T], for which the protein stability index worked out at 3.4. Turning to LRHSFQKQQREKTRWLDSGRGDEA [N17D], the protein stability index worked out at 3.94.

Consider LRHSFQKQQREKTRWLFSGRGDEA [N17F], for which the protein stability index turned out to be 3.14. Same read-out and setting: in the case of LRHSFQKQQREKTRWLISGRGDEA [N17I] it was 2.7; in that of LRHSFQKQQREKTRWLNSGRGDCA [E23C], 3.54.

Turning to LRHSFQKQQREKTRWLNSGRGDNA [E23N], the protein stability index amounted to 3.73. The same measure, in the same setting: then LRHSFQKQQREKTRWLNSGRGDDA [E23D], with 3.6; and LRHSFQKQQREKTRWLNSGRGDHA [E23H], with 3.23; and LRHSFQKQQREKTRWLNSGRGDMA [E23M], with 3.25. Same read-out and setting: then LRHSFQKQQREKTRWLNSGRGDRA [E23R], with 3.49; and LRHSFQKQQREKTRWLNSGRGDQA [E23Q], with 3.2. On to LRHSFQKQQREKTRWLNSGRGDGA [E23G], for which the protein stability index was 3.64. For the variant LRHIFQKQQREKTRWLNSGRGDEA [S4I], the protein stability index turned out to be 2.82.

LRHGFQKQQREKTRWLNSGRGDEA [S4G]: the protein stability index came to 3.45.

On to LRHNFQKQQREKTRWLNSGRGDEA [S4N], for which the protein stability index amounted to 4.03.

LRHVFQKQQREKTRWLNSGRGDEA [S4V]: the protein stability index worked out at 3.15. On to LRHHFQKQQREKTRWLNSGRGDEA [S4H], for which the protein stability index worked out at 2.74. Same read-out and setting: in the case of LRHEFQKQQREKTRWLNSGRGDEA [S4E] it was 3.86; in that of LRHTFQKQQREKTRWLNSGRGDEA [S4T], 3.57. For LRHSFQKQQREKTRWLNSRRGDEA [G19R], the protein stability index turned out to be 3.65. As to LRHSFQKQQREKTRWLNSPRGDEA [G19P], the protein stability index was determined as 3.65. Still for that read-out and setting: in the case of LRHSFQKQQREKTRWLNSWRGDEA [G19W] it was 2.63; in that of LRHSFQKQQREKTRWLNSKRGDEA [G19K], 3.69. Same read-out and setting: in the case of LRHSFQKQQREKTRWLNSVRGDEA [G19V] it was 2.82. The same measure, in the same setting: in the case of LRHSFQKQQREKTRWLNSDRGDEA [G19D] it was 4.6; in that of LRHSFQKQQREKTRWLNSERGDEA [G19E], 4.29; in that of LRHSFQKQQREKTRWLNSTRGDEA [G19T], 3.37.

Regarding LRHSFQKQQREKTRWLNSMRGDEA [G19M], the protein stability index was determined as 3.57. The same measure, in the same setting: in the case of LRHSFQKQQREKTRWLNSFRGDEA [G19F] it was 2.83; in that of LRHSFQKQQREKTRWLNSCRGDEA [G19C], 2.22. For the variant LRHSFQKQQREKTRWLNSNRGDEA [G19N], the protein stability index came to 3.6.

Consider LVHSFQKQQREKTRWLNSGRGDEA [R2V], for which the protein stability index was found to be 3.11. As for LWHSFQKQQREKTRWLNSGRGDEA [R2W], the protein stability index is 2.92. Regarding LIHSFQKQQREKTRWLNSGRGDEA [R2I], the protein stability index is 3.06. For LYHSFQKQQREKTRWLNSGRGDEA [R2Y], the protein stability index was 3.26. On the same count and under the same terms, in the case of LCHSFQKQQREKTRWLNSGRGDEA [R2C] it was 3.58; in that of LLHSFQKQQREKTRWLNSGRGDEA [R2L], 3; in that of LRHSFQKQQREKTRWLNSGRIDEA [G21I], 3.42. Same read-out and setting: in the case of LRHSFQKQQREKTRWLNSGRTDEA [G21T] it was 3.33; in that of LRHSFQKQQREKTRWLNSGRNDEA [G21N], 3.43. The same measure, in the same setting: in the case of LRHSFQKQQREKTRWLNSGRDDEA [G21D] it was 4.42.

With LRHSFQKQQREKTRWLNSGRQDEA [G21Q], the protein stability index stood at 3.49. The same measure, in the same setting: in the case of LRHSFQKQQREKTRWLNSGRVDEA [G21V] it was 3.59; in that of LRHSFQKQQREKTRWLNSGRADEA [G21A], 4. For the variant LRHSFQKQQREKTRWLNSGRHDEA [G21H], the protein stability index was 3.2. The same measure, in the same setting: then LRHSFQKQQREKTRWLNSGRFDEA [G21F], with 3.39; and LRHSFQKQNREKTRWLNSGRGDEA [Q9N], with 3.72. Regarding LRHSFQKQHREKTRWLNSGRGDEA [Q9H], the protein stability index is 3.7. Same read-out and setting: in the case of LRHSFQKQIREKTRWLNSGRGDEA [Q9I] it was 3.18; in that of LRHSFQKQEREKTRWLNSGRGDEA [Q9E], 4.29; in that of LRHSFQKQMREKTRWLNSGRGDEA [Q9M], 3.84. Turning to LRHSFQKQYREKTRWLNSGRGDEA [Q9Y], the protein stability index worked out at 3.01. Consider QRHSFQKQQREKTRWLNSGRGDEA [L1Q], for which the protein stability index was 3.78.

For HRHSFQKQQREKTRWLNSGRGDEA [L1H], the protein stability index was 3.92. As for CRHSFQKQQREKTRWLNSGRGDEA [L1C], the protein stability index was 3.23.

The values above are taken from the supplement of paper PMC10567573.
